In US20230265516A1 (UNIVERSITY OF ARIZONA ARIZONA BOARD OF REGENTS, published 2023) one finds Kd data, which are given here for one molecule.

For this assay, the target named is T1, nicotinamide phosphoribosyltransferase (NAMPT), secreted form (Homo sapiens (Human), UniProt P43490 1-491).
T1 construct: also called PBEF; visfatin
Description: SPR (format not described).

T1 sequence (P43490 whole entry): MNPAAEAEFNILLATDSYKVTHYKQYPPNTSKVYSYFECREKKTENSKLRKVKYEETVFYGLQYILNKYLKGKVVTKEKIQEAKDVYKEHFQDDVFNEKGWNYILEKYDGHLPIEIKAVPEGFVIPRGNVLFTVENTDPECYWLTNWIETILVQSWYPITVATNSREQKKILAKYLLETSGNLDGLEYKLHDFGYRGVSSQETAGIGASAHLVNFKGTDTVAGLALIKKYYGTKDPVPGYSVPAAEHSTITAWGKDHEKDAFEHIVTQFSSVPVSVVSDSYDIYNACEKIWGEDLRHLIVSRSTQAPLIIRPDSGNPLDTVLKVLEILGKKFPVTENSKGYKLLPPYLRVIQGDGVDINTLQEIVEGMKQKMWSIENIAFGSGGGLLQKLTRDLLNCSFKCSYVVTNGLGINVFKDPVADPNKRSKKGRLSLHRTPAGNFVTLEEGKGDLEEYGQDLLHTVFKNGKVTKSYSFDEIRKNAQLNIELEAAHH

B1: humanized anti-NAMPT monoclonal antibody ALT-100 (antibody, V domains shown)
VH: QVQLVQSGAEVTKPGASVKVSCKASGYTFTSYWMQWVRQAPGQGLEWVGEIEPSNSYTNYNQKFRGRVTLTRDTSTTTVYMELSSLRSEDTAVYYCARGGYWGQGTTVTVSS
VL: DIVMTQSPLSLPVTPGEPASISCRSSKSLLHSQGITYLYWYLQKPGQSPQLLIYQLSNRASGVPDRFSGSGSGTDFTLKISRVEAEDVGVYYCVQNLELPYTFGGGTKLEIK
notes: the in vivo control was an IgG1 antibody; also called ALT-100 mAb; Ab3
Regarding B1, binding was characterised by a dissociation constant (Kd) of 4.5 nM.
